Test system: interaction between TP53 and MDM2 or between Iκβα and RelA
Assay: Comparison of altered biotinylation enzymes by the method of Example 2 (Example 4)
Type: biochemical
Settings: for specificity / non-specific signal of labeling: luminescence detection; for labeling activity on introduction of Q141R mutation into AVVA mutant: compared with AVVA mutant without Q141R
Experimental: In this Example, various altered biotinylation enzymes were evaluated by the method used in Example 2.
Specifically, by a method similar to that for AirID (SEQ ID NO: 3) in Example 2, the interaction between TP53 and MDM2 or between Iκβα and RelA was analyzed using BioID (SEQ ID NO: 1), TurboID (SEQ ID NO: 2), an AirID-S118G mutant (SEQ ID NO: 12), an AWA-R118S mutant (SEQ ID NO: 13), an AVVA-R118G mutant (SEQ ID NO: 14), an AWA-R118S, Q141R mutant (SEQ ID NO: 15), and an AVVA-R118G, Q141R mutant (SEQ ID NO: 16).
The results in the figures were standardized in that the dispensation amount of the magnetic beads on the wells of the plate was 75 nL. An exposure time at the time of luminescence detection with LAS4000 (manufactured by GE Healthcare) was set to 3 minutes for TurboID, and 10 minutes for the protein of any other sequence identification number. A signal value was obtained from a measurement image through use of Array-Pro Analyzer™.

Row | Molecule | specificity / non-specific signal of labeling (75 nL magnetic beads) | signal intensity (75 nL magnetic beads, exposure 3 minutes for TurboID) | labeling activity on introduction of Q141R mutation into AVVA mutant | biotin modification activity (compared with the other enzymes)
1 | TurboID: proximity-dependent biotin ligase, SEQ ID NO: 2 (protein, TurboID) MKDNTVPLKLIALLANGEFHSGEQLGETLGMSRAAINKHIQTLRDWGVDVFTVPGKGYSLPEPIPLLNAKQILGQLDGGSVAVLPVVDSTNQYLLDRIGELKSGDACIAEYQQAGRGSRGRKWFSPFGANLYLSMFWRLKRGPAAAIGLGPVIGIVMAEALRKLGADKVRVKWPNDLYLQDRKLAGILVELAGITGDAAQIVIGAGINVAMRRVEESVVNQGWITLQEAGINLDRNTLAATLIRELRAALELFEQEGLAPYLPRWEKLDNFINRPVKLIIGDKEIFGISRGIDKQGALLLEQDGVIKPWMGGEISLRSAEK | a certain signal (non-specific) is found even for an interaction that should be negative | high signal intensity | – | –
2 | AWA-R118S, Q141R mutant: proximity-dependent biotin ligase, SEQ ID NO: 15 (protein, AVVA-R118S,Q141R) MSEQWSRKREILALLSSGHFVSGEELATQLGISRTAVSKHIAALEEYGVDIYSVKGKGYKLANPISLIDESKLKSAINNRCFYFDEIPSTNGFMLKHAEELKSGDICVAEYQSAGRGSRGRTWVSPYGCHLYFSLYWRFPRGMAQAMGLSLVVACSLVKVLKSFGVDGVGVKWPNDIYLNHKKLAGVLIEMSGQADSECHLVIGIGINMAMSEQQGKKIDQPWSDLSSLTSMPDKTELLIALQKQLKQDLELFEREGLKAFQPRWQEADLFYGKQIKLLMGENQVEGICRGIDEQGAVLLETDDGIQAFIGGEISLRAA | extremely high specificity | – | enhances its labeling activity | –
3 | AWA-R118S mutant: proximity-dependent biotin ligase, SEQ ID NO: 13 (protein, AVVA-R118S) MSEQWSRKREILALLSSGHFVSGEELATQLGISRTAVSKHIAALEEYGVDIYSVKGKGYKLANPISLIDESKLKSAINNRCFYFDEIPSTNGFMLKHAEELKSGDICVAEYQSAGRGSRGRTWVSPYGCHLYFSLYWRFPQGMAQAMGLSLVVACSLVKVLKSFGVDGVGVKWPNDIYLNHKKLAGVLIEMSGQADSECHLVIGIGINMAMSEQQGKKIDQPWSDLSSLTSMPDKTELLIALQKQLKQDLELFEREGLKAFQPRWQEADLFYGKQIKLLMGENQVEGICRGIDEQGAVLLETDDGIQAFIGGEISLRAA | extremely high specificity | – | – | –
4 | AVVA-R118G mutant: proximity-dependent biotin ligase, SEQ ID NO: 14 (protein, AVVA-R118G) MSEQWSRKREILALLSSGHFVSGEELATQLGISRTAVSKHIAALEEYGVDIYSVKGKGYKLANPISLIDESKLKSAINNRCFYFDEIPSTNGFMLKHAEELKSGDICVAEYQSAGRGGRGRTWVSPYGCHLYFSLYWRFPQGMAQAMGLSLVVACSLVKVLKSFGVDGVGVKWPNDIYLNHKKLAGVLIEMSGQADSECHLVIGIGINMAMSEQQGKKIDQPWSDLSSLTSMPDKTELLIALQKQLKQDLELFEREGLKAFQPRWQEADLFYGKQIKLLMGENQVEGICRGIDEQGAVLLETDDGIQAFIGGEISLRAA | extremely high specificity | – | – | –
5 | AVVA-R118G, Q141R mutant: proximity-dependent biotin ligase, SEQ ID NO: 16 (protein, AVVA-R118G,Q141R) MSEQWSRKREILALLSSGHFVSGEELATQLGISRTAVSKHIAALEEYGVDIYSVKGKGYKLANPISLIDESKLKSAINNRCFYFDEIPSTNGFMLKHAEELKSGDICVAEYQSAGRGGRGRTWVSPYGCHLYFSLYWRFPRGMAQAMGLSLVVACSLVKVLKSFGVDGVGVKWPNDIYLNHKKLAGVLIEMSGQADSECHLVIGIGINMAMSEQQGKKIDQPWSDLSSLTSMPDKTELLIALQKQLKQDLELFEREGLKAFQPRWQEADLFYGKQIKLLMGENQVEGICRGIDEQGAVLLETDDGIQAFIGGEISLRAA | extremely high specificity | – | enhances its labeling activity | –

Further lines, with some results ahead:

Row | specificity / non-specific signal of labeling (75 nL magnetic beads) | signal intensity (75 nL magnetic beads, exposure 3 minutes for TurboID) | labeling activity on introduction of Q141R mutation into AVVA mutant | Molecule | biotin modification activity (compared with the other enzymes)
6 | low non-specificity | – | – | BioID: proximity-dependent biotin ligase, SEQ ID NO: 1 [reference compound] | lower biotin modification activity than the other enzymes
7 | extremely high specificity | – | – | AirID: proximity-dependent biotin ligase, SEQ ID NO: 3 (protein, AirID) MKDNTVPLTLISILADGEFHSGEQLGEQLGMSRAAINKHIKTLRDWGVDVFRVQGKGYCLPEPIQLLDEEKIRQQLDEGSVTVLPVIDSTNQYLLDRLDELTSGDVCIAEYQQAGRGSRGRKWFSPFGANLYLSMYWRLEQGPAAAMGLSLVIGIVMAETLQKLGADGVRVKWPNDLYLNDRKLAGILVEMTGKTGDAAHIVIGAGINLSMREPETDEVDQSWINLQEAGITIDRNQLAARLIKDLRSALRQFEQQGLAPFLSRWEALDNFINRPVKLIIGDREIHGIARGINEQGALLLEQDGVIKPWIGGEISLRSA | –
8 | extremely high specificity | – | – | AirID-S118G mutant: proximity-dependent biotin ligase, SEQ ID NO: 12 (protein, AirID_S118G) MKDNTVPLTLISILADGEFHSGEQLGEQLGMSRAAINKHIKTLRDWGVDVFRVQGKGYCLPEPIQLLDEEKIRQQLDEGSVTVLPVIDSTNQYLLDRLDELTSGDVCIAEYQQAGRGGRGRKWFSPFGANLYLSMYWRLEQGPAAAMGLSLVIGIVMAETLQKLGADGVRVKWPNDLYLNDRKLAGILVEMTGKTGDAAHIVIGAGINLSMREPETDEVDQSWINLQEAGITIDRNQLAARLIKDLRSALRQFEQQGLAPFLSRWEALDNFINRPVKLIIGDREIHGIARGINEQGALLLEQDGVIKPWIGGEISLRSA | –
